In this experiment the target is T1, HLA-A0201 on the surface of T2 cells (human).
T1 construct: MHC class I molecule on TAP-deficient T2 cells
Nature of the experiment: T2 cell peptide loading, 100 µM peptide, anti-HLA-A*02:01 FITC flow cytometry.
Protocol: After centrifugation at 200 g for 5 minutes for cell collection, the collected cells were washed with phosphate buffer saline (PBS) buffer twice, before incubated with anti-HLA-A*02:01 FITC monoclonal antibody at 4° C. for 30 minutes. The mean fluorescence intensity of cells was then detected and analyzed by the flow cytometry (BD FACSJazz™) and its software.
In the case of FILDGSYSV [wild-type polypeptide (depicted in FILDGSYSV, SEQ ID NO:7)], the “FI (fluorescence index)” value was determined as 1.59 and the Mean fluorescence intensity amounted to 589.
As for FILDGLYSL [mutant polypeptide's variant (depicted in FILDGLYSL, SEQ ID NO:2)], the “FI (fluorescence index)” value is 1.99 and the Mean fluorescence intensity came to 681.
On to FLLDGLYSL [mutant polypeptide's variant (depicted in FLLDGLYSL, SEQ ID NO:6)], for which the “FI (fluorescence index)” value is 1.69 and the Mean fluorescence intensity is 612.
Turning to FMLDGLYSL [mutant polypeptide's variant (depicted in FMLDGLYSL, SEQ ID NO:5)], the “FI (fluorescence index)” value was 2.14 and the Mean fluorescence intensity worked out at 714.
For FILDGLYSV [mutant polypeptide (depicted in FILDGLYSV, SEQ ID NO:1)], in that order: 1.92 and 664.
As for FMLDGLYSV [mutant polypeptide's variant (depicted in FMLDGLYSV, SEQ ID NO:3)], the “FI (fluorescence index)” value turned out to be 2.34 and the Mean fluorescence intensity came out at 759.
For FLLDGLYSV [mutant polypeptide's variant (depicted in FLLDGLYSV, SEQ ID NO:4)], the “FI (fluorescence index)” value was determined as 2.04 and the Mean fluorescence intensity came to 692.

The values above are taken from patent publication US20190263864A1 (GENOIMMUNE THERAPEUTICS, published 2019).
